From US20170052184A1 (published 2017)

Tests used:
HCV Core1-169 [1] = molecular target: T1, HCV Core1-169 (hepatitis C virus (HCV-1), UniProt P26664 1-169); assay: SPR sandwich, capture mAb C11-3
T1 sequence: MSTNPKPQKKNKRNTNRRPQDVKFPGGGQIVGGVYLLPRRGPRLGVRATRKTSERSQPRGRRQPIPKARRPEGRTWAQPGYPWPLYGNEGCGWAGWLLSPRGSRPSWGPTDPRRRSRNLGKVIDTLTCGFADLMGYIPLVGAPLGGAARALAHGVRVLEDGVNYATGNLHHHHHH

HCV Core1-169 [2] = molecular target: T1, HCV Core1-169; assay: SPR sandwich, capture mAb C11-7
HCV Core1-169 [3] = molecular target: T1, HCV Core1-169; assay: SPR sandwich, capture mAb C11-9
HCV Core1-169 [4] = molecular target: T1, HCV Core1-169; assay: SPR sandwich, capture mAb C11-14

Measured: expected percent binding

B1: HCV 208B-911 (antibody, V domains shown)
VH: QVHLQQPGAELVRPGVSVKLSCKASGYTFTTYSINWMKQRPGQGLEWIGNIYPSTSHTNYNQKFRDKATMTVDKSSSTAYMQLSSPTSEDSAVYYCTINAYSMDYWGQGTSVTVSS
VL: QIVLTQSPEIMSASPGEKVTITCSASSSVSFMYWFQQKPGTSPKLWIYITSNLASGVPTRFSGSGSGTSYSLTISRMEAEDAATYYCQQRSSFPYTFGGGTKLEMKR
≤ 1%: all assays above

B2: HCV 208A-422 (antibody, V domains shown)
VH: DVQLQESGPGLVNPSQSLSLTCSVTGYSITSGYYWIWIQQSPGNKLEWMGYIKYDGGNNYSPSLKNRISIARDTSKNQCFLKLNSVTIEDTATYYCTRGSDSFDYWGQGTTLTVSS
VL: DIVLTQSPASLAVSLGQRAIISCKASQSVSFAGTNLMHWYQQKPGQQPKLLIYRASNLETGVPTRFSGSGSRTDFTLNIHPVEEDDAATYYCQQSREYYTFGGGTKLEIKR
≤ 1%: all assays above

B3: HCV 208A-442 (antibody, V domains shown)
VH: DVQLQESGPGLVNPSQSLSLTCSVTGYSITSGYYWIWIRQFPGNKLEWMGYIKYDGGNNYSPSLKNRISIARDTSKNQFFLKLNSVTIEDTATYYCTRGSDSFDYWGQGTTLTVSS
VL: DIVLTQSPASLAVSLGQRAIISCKASQSVSFAGTNLMHWYQQKPGQQPKLLIYRASNLETGVPTRFSGSGSRTDFTLNIHPVEEDDAATYYCQQSREYYTFGGGTKLEIKR
1.6%: HCV Core1-169 [2]
≤ 1%: all other assays above

B4: HCV 208B-826 (antibody, V domains shown)
VH: DVQLVESGGGLVQAGGSRKLSCAASGFPFSSFGMHWVRQAPEKGLEWVASISSRTSKIYYADNLKGRFTISRDNPKNTLFLQMTSLGSEDTAMYYCVRSVFGNSYWFFDVWGAGTTVTVSS
VL: DIVLTQSPATLSVTPGDRVSLSCRASQRIYNYLHWYQQKSHESPRLLTKYASQSISGIPSRFSGSGSGTDFILTINSVETEDFGMYFCQQSNSWPLTFGAGTKLELRR
≤ 1%: all assays above

B5: HCV 208B-517 (antibody, V domains shown)
VH: QVQLKQSGPGLVQPSQSLSITCTVSGFSLITHGVHWVRQSPGKGLEWLGVIWSGGSTDYNAAFISRLSISKDTSKSQVFLKMSSLQADDTAIYYCARNGGATAFDYWGQGTTLTVSS
VL: DIVMTQSPATLSVTPGDRVSLSCRASQSISDYLHWYQQKSHESPRLLIKYASQSISGIPSRFRGSGSGSHFTLSINSVEPEDVGVYYCQNGHSFPWTFGGGTKLEIKR
≤ 1%: all assays above

B6: HCV 208B-822 (antibody, V domains shown)
VH: QVQLKQSGPGLVQPSQSLSITCTVSGFSLITYGVHWVRQSPGKGLEWLGVIWGGGSTGYNAAFVSRLNITKDNSKSQVFFKMNSLQPDDTAIYYCARNGGATVFDYWGQGTTLTVSS
VL: DIVMTQSPATLSVTPGDRVSLSCRASQTISDYLHWYQQKSHESPRLLIKYASQSISGIPSRFSGSGSGSHFTLSINSVEPEDVGVYYCQNGHSFPWTFGGGTKLEIKR
≤ 1%: all assays above

B7: HCV 208A-874 (antibody, V domains shown)
VH: QVQLQQPGAELVKPGASVKLSCKASGYTLSSYWMHWVKQRPGQGLEWIGEIHPSDSYTSYNQKFKDKATLTVDKSSSTAYMQLSSLTSEDSAVYYCARGGYYRYDEFAYWGQGTLVTVSA
VL: DIVMTQSHKFMSTSIGDRVSITCKASQNVSPAVAWYQQKPGQSPKLLIYSASSRYTGVPDRFTGSGSGTAFTFTISSVQAEDLAVYFCQQHFSTPWTFGGGTMLEIKR
≤ 1%: all assays above

B8: HCV 208B-793 (antibody, V domains shown)
VH: EVKLVESGGGLVQPGGSLKLSCAASGFTFSSYAMSWVRQTPERRLEWVTYISNGGGSTYYSDTVKGRFTFSRDNAKNTLYLQMSSLKSEDTAMYYCARHGLGRTGFASWGQGTLVTVSA
VL: DIVMTQSHKFMSTSVGDRVSITCKASQDVGTAVAWYQQKPGQSPKLLIYWASTRHTGVPDRFTGSGSGTDFTLTISNVQSEDLADYFCQQYSNYLTFGAGTKLEVKR
≤ 1%: all assays above

B9: HCV 208B-515 (antibody, V domains shown)
VH: QVQLQQPGAELVKPGASLKLSCRASGYTFTSYWIHWVKQRPGQGLEWIGEIDPSDSYTNYNQKFKGKATLTVDKSSRAAYMQLSSLTSEDSAVYYCARHYYGVFDSWGQGTKLTVSS
VL: QIVFTQYPAIMSASLGERVTMTCTASSSVTSSYLHWFQQKPGSSPKLWIYSTSNPGSGVPARFSGRGSGTSYSLSISSMEAEDAATYYCLQFHRSPWTFGGGTKLEIRR
≤ 1%: all assays above

B10: HCV 208B-408 (antibody, V domains shown)
VH: EVKLVESGGGLVQPGGSLRLSCASSGFTFTDYYMSWVRQPPGKALEWLGFIRNKAYGYTTEFSASVNGRFTISRDDSQSVPYLQMNTLRAEDSATYYCARVLYYDYGGFAYWGQGTLVTVST
VL: DIQMTQSPASLSASVGETVTITCRASGNIHTYLAWYQQKQGKSPQLLVYNANTLADGVPSRFSGSGSGTQFSLKINSLQPDDFGSYYCQHFWSAPWTFGGGTQLEIKR
≤ 1%: all assays above

B11: HCV 208B-327 (antibody, V domains shown)
VH: EVQLVESGGGLVKPGGSLKLSCAASGFTFSDSYMYWVRQTPDQRLEWVATISDGGSYTFYPDSVKGRFTISRDNAQNNLYLQMSSLKSEDTAMYYCASPHAGYFGWFAYWGRGTLVTVSA
VL: DIVMTQAAFSNPVTPGTSVSISCRSSKSLLHSNGITYLYWYLQKPGQSPQLLIYQMSKIASGVPDRFRSSGSGTDFTLRISRVEAADVGVYYCAQNLELPWTFGGGTKLEIKR
≤ 1%: all assays above

B12: HCV 208A-210 (antibody, V domains shown)
VH: QVQLQQSGPELVKPGASMRISCKASGYTFTSYYVHWIKQRPGQGLEWIGCIYPGDVNTDYNEKFKGKATLTADKSSSTAYMQVSTLTSEDSAIYFCVLYYYGSFAYWGQGTLVTVSA
VL: EIVLTQSPAITAASLGQNVTITCRASSSVSYMHWYRQKSGTSPQLWIYEISRRASGVPARFRASGSGTSYSLTISSMEAEDAAIYYCQQWNYPLTFGAGTKLEVKR
≤ 1%: HCV Core1-169 [3] | HCV Core1-169 [4]
1.2%: HCV Core1-169 [1]
1.6%: HCV Core1-169 [2]

B13: HCV 208B-178 (antibody, V domains shown)
VH: DVKLVESGGGLVKLGGSLKLSCAASGFTFSSYYMSWVRQTPEKRLELVAAINSNGGSTYYPDTVKGRFTISRDNAKNTLYLQMSSLKSEDTALYYCARHGGLGRRDWYFDVWGAGTTVTVSS
VL: DIVLTQSPASLAVSLGQRATISCRASESVDNYGISFMHWYQQKPGQPPKLLIYRASNLESGIPARFSGSGSRTDFTLTINPVETDDVATYYCQQSNKDPFTFGSGAKLEIKR
1.7%: HCV Core1-169 [2]
≤ 1%: all other assays above
